From patent US20200325212A1 (CITY OF HOPE, published 2020)
Blank lines part the entries; values can stand above or below the binder they belong to.

Assays:
[1] = target: T1, CTLA4-Fc MMP9 (MMP9-cleavable CTLA4-Fc mask; CTLA4-Fc_WT) (human); experiment: SPR, CTLA-4-MMP9-Fc coupled to the sensor chip and titrated with m-Lcn2-Fc; no dissociation observed
T1 construct: It was expressed in insect cells; also called CTLA-4-MMP9-Fc; CTLA4-MMP9-Fc
Description: To verify that the m-Lcn2-Fc and CTLA-4-Fc form a 1:1 complex, we used analytical size exclusion chromatography (SEC) (FIG. 3 panel A). A definitive shift to earlier elution volumes was observed, consistent with a molecular mass of 200 kD, as expected. To verify an increase in the apparent affinity due to the energy additivity of bivalent-bivalent interaction, the mask, CTLA-4-MMP9-Fc, was coupled to a CMS sensor chip and titrated with the bivalent m-Lcn2-Fc. A substantial increase in affinity was observed. In fact, no dissociation was observed and thus no calculation could be completed for an apparent dissociation constant (FIG. 3 panel B). […] In an attempt to establish the off-rate, a competition assay was carried out. Specifically, the 1:1 m-Lcn2-Fc|CTLA-4-MMP9-Fc complex was isolated and incubated with 10 fold excess of Alexafluor-labeled CTLA-4-MMP9-Fc. The exchange by size exclusion chromatography was followed by monitoring at […]. After two weeks, less than 5% exchange was observed.
Surface Plasmon Resonance (SPR). SPR experiments were performed on a GE Biacore T100 instrument at 25° C. Ligands were amine coupled to CMS chips at 300 Rmax. Blank lanes were used as baseline control. Analyte titrations were prepared as serial dilutions in HBS-EP⁺ running buffer (10 mM Hepes pH 7.4, 150 mM NaCl, 3 mM EDTA, 0.05% v/v P20). […]

[2] = target: murine CTLA4 on murine T-cells (C57BL/6 splenocytes) (mouse, UniProt P09793 36-223); experiment: cell-based or functional assay
[3] = target: T2, CTLA4-Fc variant E31S R33E T51H (human); experiment: SPR (Biacore T100), mLCN2 on CTLA4-Fc variant
T2 construct: Whole fusion (CTLA4 extracellular domain, MMP9 linker, IgG1 Fc) with E31S, R33E and T51H; also called E31S, R33E, T51H CTLA-4
T2 sequence (chain, as listed by the source E31S R33E T51H E31S R33E T51H limits assumed): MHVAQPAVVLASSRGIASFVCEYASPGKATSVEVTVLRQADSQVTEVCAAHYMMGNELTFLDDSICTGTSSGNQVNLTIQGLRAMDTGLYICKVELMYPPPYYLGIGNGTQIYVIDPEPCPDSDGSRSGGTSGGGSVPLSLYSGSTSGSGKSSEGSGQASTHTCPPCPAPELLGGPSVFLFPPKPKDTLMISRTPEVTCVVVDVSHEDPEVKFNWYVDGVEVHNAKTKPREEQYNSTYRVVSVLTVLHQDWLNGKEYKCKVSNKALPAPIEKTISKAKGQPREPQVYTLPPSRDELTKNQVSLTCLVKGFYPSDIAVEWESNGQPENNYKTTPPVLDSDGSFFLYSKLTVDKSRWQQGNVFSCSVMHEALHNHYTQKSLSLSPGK
Experimental: (§1) Surface Plasmon Resonance (SPR). SPR experiments were performed on a GE Biacore T100 instrument at 25° C. Ligands were amine coupled to CMS chips at 300 Rmax. Blank lanes were used as baseline control. Analyte titrations were prepared as serial dilutions in HBS-EP⁺ running buffer (10 mM Hepes pH 7.4, 150 mM NaCl, 3 mM EDTA, 0.05% v/v P20). Increasing concentrations of analytes were flowed over blank and ligand lanes at 50 μL/min. Regeneration buffer (1 M NaCl, 10 mM glycine pH 2.6) was flowed at 90 μL/min for 10 s. Data analyses were performed using Biacore T100 Evaluation Software, version 1.1.1 (GE Healthcare). Response reported as the difference between blank and peptide lanes.
(§2) TABLE 3 Kinetics of CTLA4-Fc mask variants, as measured by SPR. Binding kinetics of mLCN2 for each CTLA4-Fc variant was measured by SPR. Half-life time was calculated from equation: t_{1/2} = ln (2)/kd.

CTLA4-Fc variant Y52F [4] = target: CTLA4-Fc variant Y52F (human); experiment: SPR (Biacore T100), mLCN2 on CTLA4-Fc variant
CTLA4-Fc variant Y52F (human), sequence (chain, as listed by the source Y52F Y52F limits assumed): as the sequence (chain, as listed by the source E31S R33E T51H E31S R33E T51H limits assumed) above, with S31E, E33R, H51T, Y52F counted along it
Experimental: as §1, §2

CTLA4-Fc variant T51H [5] = target: T3, CTLA4-Fc variant T51H (human); experiment: SPR (Biacore T100), mLCN2 on CTLA4-Fc variant
T3 construct: Whole fusion (CTLA4 extracellular domain, MMP9 linker, IgG1 Fc) with T51H; also called T51H CTLA-4
T3 sequence (chain, as listed by the source T51H T51H limits assumed): as the sequence (chain, as listed by the source E31S R33E T51H E31S R33E T51H limits assumed) above, with S31E, E33R counted along it
Experimental: as §1, §2

[6] = target: T4, CTLA4-Fc variant E31A R33A (human); experiment: SPR (Biacore T100), mLCN2 on CTLA4-Fc variant
T4 construct: Whole fusion (CTLA4 extracellular domain, MMP9 linker, IgG1 Fc) with E31A and R33A; also called E31A and R33A CTLA-4
T4 sequence (chain, as listed by the source E31A R33A E31A R33A limits assumed): as the sequence (chain, as listed by the source E31S R33E T51H E31S R33E T51H limits assumed) above, with S31A, E33A, H51T counted along it
Experimental: as §1, §2

[7] = target: T1, CTLA4-Fc MMP9 (MMP9-cleavable CTLA4-Fc …); experiment: SPR (Biacore T100), mLCN2 on CTLA4-Fc variant
Experimental: as §1, §2

[8] = target: T5, CTLA-4-Fc (purchased from R&D systems) (human, UniProt P16410 37-162); experiment: SPR presumed; method not given; monovalent m-Lcn2 to CTLA-4
T5 construct: Bought reagent; also called human CTLA4; not shown: Fc part and linker of the commercial product are not described
T5 sequence (looked up): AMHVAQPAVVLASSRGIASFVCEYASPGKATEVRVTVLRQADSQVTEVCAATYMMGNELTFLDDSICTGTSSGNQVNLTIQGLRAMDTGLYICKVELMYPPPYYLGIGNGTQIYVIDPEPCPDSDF

[9] = target: T5, CTLA-4-Fc (purchased from R&D systems); experiment: calculated from the koff of the monovalent m-Lcn2 : CTLA-4 interaction
[10] = target: T2, CTLA4-Fc variant E31S R33E T51H; experiment: calculated from SPR kd, t1/2 = ln(2)/kd
Experimental: as §1, §2

CTLA4-Fc variant Y52F [11] = target: CTLA4-Fc variant Y52F (human); experiment: calculated from SPR kd, t1/2 = ln(2)/kd
Experimental: as §1, §2

CTLA4-Fc variant T51H [12] = target: T3, CTLA4-Fc variant T51H; experiment: calculated from SPR kd, t1/2 = ln(2)/kd
Experimental: as §1, §2

[13] = target: T4, CTLA4-Fc variant E31A R33A; experiment: calculated from SPR kd, t1/2 = ln(2)/kd
Experimental: as §1, §2

[14] = target: T1, CTLA4-Fc MMP9 (MMP9-cleavable CTLA4-Fc …); experiment: calculated from SPR kd, t1/2 = ln(2)/kd
Experimental: as §1, §2

T1 sequence (chain, as listed by the source limits assumed): as the sequence (chain, as listed by the source E31S R33E T51H E31S R33E T51H limits assumed) above, with S31E, E33R, H51T counted along it

Kd [1]: ≤ 0.2 nM | induction of IFN-γ production (Elispot) [2]: 10 fold
B1: mLCN2-Fc (bivalent m-Lcn2 fused to human IgG1 Fc) (Fc fusion)
chain: QDSTSDLIPAPPLSKVPLQQNFQDNQFHGKWYVVGLAGNRILRDDQHPMNMYATIYELKEDKSYNVTSVISSHKKCEYTIATFVPGSQPGEFTLGNIKSYGDKTSYLVRVVSTDYNQYAVVFFKLAEDNAEFFAITIYGRTKELASELKENFIRFSKSLGLPENHIVFPVPIDQCIDG
notes: m-Lcn2 cDNA was subcloned N-terminal to a linker-Fc domain and expressed in insect cells; also called bivalent m-Lcn2-Fc; unmasked m-Lcn2-Fc; not shown: linker between m-Lcn2 and Fc; human IgG1 Fc fragment

Kd [3]: 5600 nM | koff [3]: 0.025 s⁻¹ | kon [3]: 4430 M⁻¹ s⁻¹ | Kd (CTLA4-Fc variant Y52F [4]): 6.14 nM | koff (CTLA4-Fc variant Y52F [4]): 0.000215 s⁻¹ | kon (CTLA4-Fc variant Y52F [4]): 35100 M⁻¹ s⁻¹ | Kd (CTLA4-Fc variant T51H [5]): 9.07 nM | koff (CTLA4-Fc variant T51H [5]): 0.00022 s⁻¹ | kon (CTLA4-Fc variant T51H [5]): 24200 M⁻¹ s⁻¹ | Kd [6]: 100 nM | koff [6]: 0.0011 s⁻¹ | kon [6]: 11000 M⁻¹ s⁻¹ | Kd [7]: 5.52 nM | koff [7]: 0.000201 s⁻¹ | kon [7]: 36400 M⁻¹ s⁻¹ | koff [8]: 0.00051 s⁻¹ | t1/2 (dissociation half-life, 0.693/KOFF) [9]: 22 min | Calculated t1/2 [10]: 0.467 min | Calculated t1/2 (CTLA4-Fc variant Y52F [11]): 53.7 min | Calculated t1/2 (CTLA4-Fc variant T51H [12]): 52.5 min | Calculated t1/2 [13]: 11.6 min | Calculated t1/2 [14]: 57.8 min
B2: modified lipocalin2 (mLcn2), monovalent (designed binder)
chain: QDSTSDLIPAPPLSKVPLQQNFQDNQFHGKWYVVGLAGNRILRDDQHPMNMYATIYELKEDKSYNVTSVISSHKKCEYTIATFVPGSQPGEFTLGNIKSYGDKTSYLVRVVSTDYNQYAVVFFKLAEDNAEFFAITIYGRTKELASELKENFIRFSKSLGLPENHIVFPVPIDQCIDG
notes: Re-engineered human lipocalin 2 used as a CTLA-4 antagonist; also called monovalent mLCN2; monomeric mLCN2
